Data published in the supplement of paper PMC10567573.

B1: PHTF1 (parent)
chain: RVKLISNKGTETDNDPSCVHPIIK
B2: CHCHD6 (parent)
chain: MYKLSSEQFHEAASKMESTIKPRR

Variants of: B1
Test: protein stability index of a GFP-peptide fusion (GPS, HEK-293T) (PSI 1-6); higher = more stable
Details: c terminus: a fixed tail appended
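Further: lentivirally expressed fusions sorted by FACS into six bins by GFP to DsRed ratio, PSI derived from sequencing read proportions per bin multiplied by bin number.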

Variant | protein stability index
RVKLISNKGTETDNDPSCVLPIIK [H20L] | 3.95
RVKLISNKGTETDNDPSCVHPIQK [I23Q] | 4.64
RVKLISNKGTETDNDPSCVHPIMK [I23M] | 4.19
RVKLISNKGTETDNDPSCVHPILK [I23L] | 4.47
RVKLISNKGTETDNDPSCVHPIRK [I23R] | 4.6
RVKLISNKGTETDNDPSCVHPIPK [I23P] | 4.69
RVKLISNKGTETDNDPSCVHPIEK [I23E] | 4.82
RVKLISNKGTETDNDPSCVHPIHK [I23H] | 4.74
RVKLISNKGTETDNDPSCVHPIAK [I23A] | 4.59
RVKLISNKGTETDNDPSCVHPISK [I23S] | 4.37
RVKLISNKGTETDNDPSCVHPIFK [I23F] | 4.02
RVKLISNKGTETDNDPSCVHPICK [I23C] | 4.67
RVKLISNKGTETDNDPSCVHPIGK [I23G] | 4.49
RVKLISNKGTETDNDPSCVHPIYK [I23Y] | 4.16
RVKLISNKGTETDNDPSCVHPITK [I23T] | 4.57
RVKLISNKGTETDNDPSCVHPIWK [I23W] | 3.52
RVKLISNKGTETDNDPSCVHPIVK [I23V] | 3.85
RVKLISNKGTETDNDPSCVHPIKK [I23K] | 4.74
RVKLISNKGTETDNDPSCVHPIDK [I23D] | 4.82
RVKLISNKGTETDNDPSCVHPINK [I23N] | 4.59

Variant | protein stability index
RVKLISNKGTETDNDPSCVHPIIM [K24M] | 3
RVKLISNKGTETDNDPSCVHPIII [K24I] | 2.49
RVKLISNKGTETDNDPSCVHPIIR [K24R] | 4.09
RVKLISNKGTETDNDPSCVHPIIA [K24A] | 3.54
RVKLISNKGTETDNDPSCVHPIIV [K24V] | 3.17
RVKLISNKGTETDNDPSCVHPIIH [K24H] | 4.11
RVKLISNKGTETDNDPSCVHPIIE [K24E] | 4.13
RVKLISNKGTETDNDPSCVHPIIC [K24C] | 3.36
RVKLISNKGTETDNDPSCVHPIID [K24D] | 4.22
RVKLISNKGTETDNDPSCVHPIIQ [K24Q] | 3.74
RVKLISNKGTETDNDPSCVHPIIN [K24N] | 4.26
RVKLISNKGTETDNDPSCVHPIIF [K24F] | 2.33
RVKLISNKGTETDNDPSCVHPIIW [K24W] | 2.73
RVKLISNKGTETDNDPSCVHPIIY [K24Y] | 2.79
RVKLISNKGTETDNDPSCVHPIIG [K24G] | 3.76
RVKLISNKGTETDNDPSCVHPIIT [K24T] | 3.68
RVKLISNKGTETDNDPSCVHPIIS [K24S] | 3.82
RVKLISNKGTETDNDPSCVHPIIP [K24P] | 4.27
RVKLISNKGTETDNDPSCVHPIIL [K24L] | 2.67
RVKLISNKGTETDNDPSFVHPIIK [C18F] | 3.79

Variant | protein stability index
RVKLISNKGTETDNDPSNVHPIIK [C18N] | 4.5
RVKLISNKGTETDNDPSRVHPIIK [C18R] | 4.08
RVKLISNKGTETDNDPSSVHPIIK [C18S] | 4.42
RVKLISNKGTETDNDPSKVHPIIK [C18K] | 4.32
RVKLISNKGTETDNDPSVVHPIIK [C18V] | 4.58
RVKLISNKGTETDNDPSAVHPIIK [C18A] | 4.01
RVKLISNKGTETDNDPSEVHPIIK [C18E] | 4.85
RVKLISNKGTETDNDPSHVHPIIK [C18H] | 4.49
RVKLISNKGTETDNDPSTVHPIIK [C18T] | 4.42
RVKLISNKGTETDNDPSDVHPIIK [C18D] | 4.46
RVKLISNKGTETDNDPSIVHPIIK [C18I] | 4.23
RVKLISNKGTETDNDPSYVHPIIK [C18Y] | 3.77
RVKLISNKGTETDNDPSMVHPIIK [C18M] | 4.19
RVKLISNKGTETDNDPSGVHPIIK [C18G] | 4.3
RVKLISNKGTETDNDPSLVHPIIK [C18L] | 4.09
RVKLISNKGTETDNDPSPVHPIIK [C18P] | 4.03
RVKLISNKGTETDNDPSQVHPIIK [C18Q] | 4.28
RVKLISNKGTETDNDPSWVHPIIK [C18W] | 2.77

Variants of: B2
Test: as above
Details: c terminus: a fixed tail appended

Variant | protein stability index
MYKLSSEQFHEAASKMESTIKPRS [R24S] | 4.11
MYKLSSEQFHEAASDMESTIKPRR [K15D] | 4.18
MYKLSSEQFHEAASRMESTIKPRR [K15R] | 3.72
MYKLSSEQFHEAASYMESTIKPRR [K15Y] | 3.5
MYKLSSEQTHEAASKMESTIKPRR [F9T] | 4.2
MYKLSSEQCHEAASKMESTIKPRR [F9C] | 3.83
MYKLSSEQFHEAASKMESIIKPRR [T19I] | 3.12
MYKLSSEQFHEAASKMESGIKPRR [T19G] | 3.76
MYKLSSEQFHEWASKMESTIKPRR [A12W] | 2.55
MYKLSSEQFHEPASKMESTIKPRR [A12P] | 4.23
MYKLSSEQFHENASKMESTIKPRR [A12N] | 2.9
MYKLSSEQFHEAASKEESTIKPRR [M16E] | 4.55
MYKLSSEQFHEAASKPESTIKPRR [M16P] | 4.31
MYKLSSEQFHEAASKMFSTIKPRR [E17F] | 2.69
MYKLSSEQFHEAASKMCSTIKPRR [E17C] | 3.46
MYKLSIEQFHEAASKMESTIKPRR [S6I] | 2.64
MYKLSSEQFHEAASKMESTIPPRR [K21P] | 4.13
MYKLSSEQFHEAASKMESTISPRR [K21S] | 3.68

Variant | protein stability index
MYKLSSEQFHEAASKMESTHKPRR [I20H] | 3.95
MYKLSSEQFHEAASKMESTDKPRR [I20D] | 4.22
MYKLSSETFHEAASKMESTIKPRR [Q8T] | 4.16
MYKLSSEMFHEAASKMESTIKPRR [Q8M] | 3.39
MYKLNSEQFHEAASKMESTIKPRR [S5N] | 4.06
MYKLTSEQFHEAASKMESTIKPRR [S5T] | 3.64
MYKLSSEQFHEAASKMESTIKQRR [P22Q] | 3.86
MYKLSSEQFHEAASKMESTIKTRR [P22T] | 4.09
MYKLSSEQFSEAASKMESTIKPRR [H10S] | 4.15
MYKLSSEQFHEASSKMESTIKPRR [A13S] | 3.81
MYKLSSEQFHEAGSKMESTIKPRR [A13G] | 3.83
MYKLSSEQFHQAASKMESTIKPRR [E11Q] | 3.69
MYKLSSEQFHWAASKMESTIKPRR [E11W] | 2.77
MYKLSSEQFHEAASKMESTIKPYR [R23Y] | 3.44
MYELSSEQFHEAASKMESTIKPRR [K3E] | 3.66
MFKLSSEQFHEAASKMESTIKPRR [Y2F] | 4.01
MVKLSSEQFHEAASKMESTIKPRR [Y2V] | 4.05
MYKESSEQFHEAASKMESTIKPRR [L4E] | 4.34
